Data published in the DeepSol protein solubility set.

Test: soluble on expression in E. coli; label from the status in PepcDB or PDB records

Sequence | soluble on expression in E. coli
MQQSYNPQNSLTATTSYSEQEIVCICESLFNEGLQTGRTEQLANFIYNLPQCYQVMESVLKAQALVYFTTQNWKMLYKLLECSKFSPHNHTVLQNLWLDAHYKEAAKTKDRELGAVCKYRIRKKNPFPNTIWDGEETNYCFKSKSRNVLRDAYKKCQYPSVEDKRRLAQQTELSIIQVSNWFKNKRQRERAAGQLDRSSARSNDSDDGSSGCESKPPMNIDSPAPPPLPTSFDLQPYYPSPYTFAPHCDFSYIQNL | not soluble
MGSDKIHHHHHHMSDSEKSNSRLFDLDLLRAIVTVADCGSFTTAAARLHSTQSTVSQKVRRLEEMAGHRLLERGNRDVLPTDAGDTLLGYARRLLALNDELAEALSGATVALTVRIGVPDDFAAGRTTERLAAFNRRYPQVKLEVTSGMSRDLSASYDRGELDLVLLKQRRASREALACWPEKTCWVDSARNPCIDLDPLPIVTFPPRGVYRDEMIAALEAVGRRWHISFTSSSLSGLQSAIADGMGIGLLPLRAVSAGHAVLPKNVGLPAVDVFEVALLHRPAADPMVKALARVLSRVLAEDTRSRPAFEK | not soluble
MLDDIPITIQKSKKIKTLSLNITPSLEVILKMPNSCSQTRASAFLKEQEAWLKKTFLSMQEKHSLLRTNLEKYQNKILVFDEVKNANDYTLTELKKILKTYLEQKLPLIAQKMQTSYTHFSIRNNAKVLGSCSYHNRLSFALLLVCAQKEAIDYVIIHELAHTIHKNHSKNFWRCVQIFCPNYRALRERLKQNTIFYAQLLKTLQPLEHHHHHH | soluble
MKIAIIGATGHAGSAIFKEALKRGHEVTGYVRHPDKSVGILPPDADLIQQDAFTLTREQLTGYDAVIDAFATTVEQAYLHIDLADHLIHELRNTDKPRVIFILGAGSLKNGDQTLYDTLKKDPHAAAFINTPLNQFRELQLLRWTDNVNWLGISPSANFQPGPATAYVRGKDELLKDDSGKSVLNSDTLAVALLDELENPTIKQARFTARNALEHHHHHH | soluble
MGSDKIHHHHHHMTKRAVVAGINDYRNWNSVGFGNLSWCLTDAQSFAEDVLVHGRGFRPDDITVLLDRDATRTNILEHLRRLLARADLGDVICLYFSGHGDRAQVPGTPSEWHETIVPYDGAAMISDHEINALIAGLEFNRLNLTLVLDSCHSGGVYDPAPPQGSKVAQWGEDKLGALVSTCKTILPTICAQTVDPFVNNIQAILRAVDSATMTVDGAKDTAETAKATLFSACDFDETAKENPTLRHGFMTKALLDTVTQSAFKMPNRLLASDLRGKVAAFVSQFGTSQQTPCLRGRPVRQDEDFLTEWTFSI | not soluble
MGSDKIHHHHHHMIKGIGTNVDTRRVNGSIKRLVSELEFFKSIGFDYVEIPAAGLDVIARGRIIRKRLERVKELLSNYNFRYTVHAPDVINLKIKTNPWHYRVMEATIEFAGEINAEVVVYHYGEVDHSIDVPERVQRKAEIVALRELADLAKEKGVVIGVENVGHPVSEVLKLVRAVNHPNVKLVIDVGHLFIVSNYTGIDFYDELKKGLPYAVELHLSDNFGESPQTYQKIPDVEAFRFVYGIGDLHLPIGEGDIPYNKVFRIIRESGFDGIVILEINSMDRFADEYADSLNLLRKRLILAADNNKTKKRRKVK | not soluble
AVNEENIMIPKGVEVYEITGPYFFGIATKFEETMAQLGDRPNVRIIRMRKVPFIDSTGIHNLTTLCEMSQKEKITVILSGVNEKVYKVLEKSGFYELLGKENICPNFKIALDRAEEVMK | soluble
MNPFTYSKPTDITAAVNLSGPATRFIAGGTNLLDLMKENVATPEHLIDITGLPLREVSETASGGLMIGALVSNADLAYHPLIEARYPLLSKAVLAGASPQLRNMASTGGNLLQRTRCYYFYDTGVPCNKREPGSGCPAREGLNRIHAILGASDECVATHPSDMCVALAALEAVVHVEGRAGRRTIEFADFHRLPGDAPQRDNQLADDELIIAVELPAQGFASHNAYLKIRDRASYAFALISVAAAIDLDGDVVRDVRLALGGVAHKPWRDKAVEALLIGKPVTREHFAAAADAMLEDAKPLEHNGFKVRLARRAIIRALSDAATGGSAL | not soluble
MEHTIAVIPGSFDPITYGHLDIIERSTDRFDEIHVCVLKNSKKEGTFSLEERMDLIEQSVKHLPNVKVHQFSGLLVDYCEQVGAKTIIRGLRAVSDFEYELRLTSMNKKLNNEIETLYMMSSTNYSFISSSIVKEVAAYRADISEFVPPYVEKALKKKFK | not soluble
GMPQTLKPDTPAGTPAAGAVAFRRQVLPQDALLVRRVVESTGFFTPEEADVAQELVDEHLMHGAACGYHFVFATEDDDMAGYACYGPTPATEGTYDLYWIAVAPHRQHSGLGRALLAEVVHDVRLTGGRLLFAETSGIRKYAPTRRFYERAGFSAEAVLKAFYRAGDDKIIYRLEVA | soluble
GPGSMSSSDQFLVDELRSRLKRRRADIVRYLDGLFYEDCRRIIECVSELDSDNLFLRNPSSLPDYAQHVTRPMYWELIQRKLQRYEYRAAADFMADMRAVVNNCYLYNGIQAPASKLARAIEVLMEDRFVTELRAAPVQPAEVK | not soluble
MSLTNSSKSFTKFMAASAVFTMGFLSVPTAGAEQTNQIANKPQAIQWHTNLTNERFTTIAHRGASGYAPEHTFQAYDKSHNELKASYIEIDLQRTKDGHLVAMHDETVNRTTNGHGKVEDYTLDELKQLDAGSWFNKKYPKYARASYKNAKVPTLDEILERYGPNANYYIETKSPDVYPGMEEQLLASLKKHHLLNNNKLKNGHVMIQSFSDESLKKIHRQNKHVPLVKLVDKGELQQFNDQRLKEIRSYAIGLGPDYTDLTEQNTHHLKDLGFIVHPYTVNEKADMLRLNKYGVDGVFTNFADKYKEVIKEGHHHHHH | soluble
MLWHAMPPELNTARLMAGAGPAPMLAAAAGWQTLSAALDAQAVELTARLNSLGEAWTGGGSDKALAAATPMVVWLQTASTQAKTRAMQATAQAAAYTQAMATTPSLPEIAANHITQAVLTATNFFGINTIPIALTEMDYFIRMWNQAALAMEVYQAETAVNTLFEKLEPMASILDPGASQSTTNPIFGMPSPGSSTPVGQLPPAATQTLGQLGEMSGPMQQLTQPLQQVTSLFSQVGGTGGGNPADEEAAQMGLLGTSPLSNHPLAGGSGPSAGAGLLRAESLPGAGGSLTRTPLMSQLIEKPVAPSVMPAAAAGSSATGGAAPVGAGAMGQGAQSGGSTRPGLVAPAPLAQEREEDDEDDWDEEDDW | soluble
MSLIDLYDLRMPQRTGTYVLHEENLAIIETGPSPSVPHLLAGLKALHIDPADIRYIIVTHIHLDHAGGVGVLLEHCPNATVIVHPKGKRHLADPSRLIAGAKAVYGEQFDALFDPIVPVPEERLLVKEDGETLVLSAERTLTFYDTPGHANHHFSIYDSYSGGVFTGDTIGVFYPQLQEAGLAFCLPSTSPNQFNPEAMKQSAERLEKLNPTRIYFGHFGALDQPEEAFRQLRFWLPKFVAAGKEVIARHPEAPAAEQAKAVTKLLHNDITAFLNECSIPASSPVYKVIELDLQVCAMGIIDYWRKQRLEHHHHHH | not soluble
MGSDKIHHHHHHMELVVDAHELKEWVYLLDKLVGTTEPTARFLSFFYRDGLWVSASDNCAKVEIFLGEIPRFEGSRIVSLDLVKYFLSDVKVSDVRITVLQERLVLKAGNEVLDVRCKTGEIPPGDGEEEFLCTLTKREFEGALNFASSNLDEGEFLILLFEEKDVLMFGASAGIMTLAQISTIPKKPFSTKIPYVTVRHIFKAFQRLDVQTLDFYEKSGKLVVKYPHFVMEVCGDEVSEEEIKKLKSLLEEKTAERIEARRQVLAKLVRKAAVLSRGDYATISRRGENLKVQVKRKNLSYTAELFVESGRDFVVVFPSKKLRSALARMDTERIFLEITERFLKISNFSGTRVIYLELEEFF | not soluble
MKRQRLVDKEWILQFPIEYFIHKEVHELNSTQAQRLVSLFKNGCETAYIARYRGDVHGYLAPEKIRKAMEAYVDAKNLNNKVSSAISTVTAKVAGAQEKIIVTERFKRCEEFDEVTDISKEYSTGTRKTKANIARALGLEPPAQSILDGNFVDFKSLLSNGLKTVKDVEEHLKICLADLINRDEEVRKVSANIDILKKECRVSAKLSREAEKNRKDLEKRGIIEKYKNFIGEKWNAEDIRDHTVSALNKGFDEGIITWKIECEFNDAKYIHPFSRKSVYFGMKNFYQEALAYSIKNYFIPRIERKMANHLKDKAKDRSIVLFGENVDQLLSQEGIRDKFVIALDPGRSKIKTAFLKPTGEVVDMSSFSIYGTRFDGGGVDLLKKWSQQTERKDIVFAIGNGTNTYNTQIAVSDMINSNVFPKEINVSYCIVPEHGASKYSCTPSAIEEFGENAEITEISAVSIGRRLIDPMSEYVKIEPQHLGKGQYQLSVDPKKLNESLLNVVRDRVSFNGVDLNTASKNLLQRINGLNEKTAKEIVQYREQNGRFRSRAELKEVKGIGALTFQQCAGFLTVSRPDDAEDGPPKKKFKKSSTSKEWNPFDETIVHPDDYRTGESLLGKLNVSIEDITGRIKSFSISRLTAEEAKVLNLLQNLTLKTKMKPPPPLRTKVGQIRDLAEGQRFTGTVSNKTDFGVFIDIGVGQDGLAHISHFKDGHYSLMLPSVNDSVEVVIDKIREDGKISLSPVY | not soluble
MGSDKIHHHHHHNDPNIQIATQDSLSTLNYRINQLLKNGTVTSSSKKNPEVKTDTDKTANDSTSDSRVWSKPEANVYIDIHDNMQLRSATIDAMNAWNRTGAFTFKQIDNKKNAQIIVNVVDDSGTDAAGETATTYNPATGHLLKATVHLNRYYLQNEWYGYSNNRIINTAEHELGHAIGLNHTNSVSVMYPKGSIYTIQPQDIKNLKKIYHEN | not soluble
VADRYAVYWNSSNPRFQRGDYHIDVCINDYLDVFCPHYEDSVPEDKTERYVLYMVNFDGYSACDHTSKGFKRWECNRPHSPNGPLKFSEKFQLFTPFSLGFEFRPGREYFYISSAIPDNGRRSCLKLKVFVRPTNSCM | soluble
MGGLFTGIALDSAGHDVTIAEQSAGDLRSRGGGIVAQQSIRQFLSRHDIVDPANITTRASERRFLTADGDVRTSTPDSMVFTSWDAVYRQLRAAFPDDRYHTGQTVTGVRATDGTVTFSDGDRTTADLVVAADGGQSTARAQLFPDADPEFADYVAWRGVVSEAELSDAVIDAFDGRFTFYQGEQMLILAYFIPGEDGNTAPGDRRLNWVWYDTLSGRERETIFTDTTGTSQQFSVSPGQLRDPVESHQRERAAETLPPVFTDLVATTAAPFVQAIYDLQSPQMTVDRVCLVGDAAFVARPHTAAGTSKAASDAVELKAALDRHSSLGGALASWDDARTDYGARLVAQGKRMGDERLSLGSLEHHHHHH | not soluble
NTKQLRFEDVVNQSSPKNCTVYCGGIASGLTDQLMRQTFSPFGQIMEIRVFPEKGYSFVRFSTHESAAHAIVSVNGTTIEGHVVKCYWGKESPDMT | soluble
MKNNKIYLLGACLLCAVTTFAQNVSLQPPPQQLIVQNKTIDLPAVYQLNGGEEANPHAVKVLKELLSGKQSSKKGMLISIGEKGDKSVRKYSRQIPDHKEGYYLSVNEKEIVLAGNDERGTYYALQTFAQLLKDGKLPEVEIKDYPSVRYRGVVEGFYGTPWSHQARLSQLKFYGKNKMNTYIYGPKDDPYHSAPNWRLPYPDKEAAQLQELVAVANENEVDFVWAIHPGQDIKWNKEDRDLLLAKFEKMYQLGVRSFAVFFDNISGEGTNPQKQAELLNYIDEKFAQVKPDINQLVMCPTEYNKSWSNPNGNYLTTLGDKLNPSIQIMWTGDRVISDITRDGISWINERIKRPAYIWWNFPVSDYVRDHLLLGPVYGNDTTIAKEMSGFVTNPMEHAESSKIAIYSVASYAWNPAKYDTWQTWKDAIRTILPSAAEELECFAMHNSDLGPNGHGYRREESMDIQPAAERFLKAFKEGKNYDKADFETLQYTFERMKESADILLMNTENKPLIVEITPWVHQFKLTAEMGEEVLKMVEGRNESYFLRKYNHVKALQQQMFYIDQTSNQNPYQPGVKTATRVIKPLIDRTFATVVKFFNQKFNAHLDATTDYMPHKMISNVEQIKNLPLQVKANRVLISPANEVVKWAAGNSVEIELDAIYPGENIQINFGKDAPCTWGRLEISTDGKEWKTVDLKQKESRLSAGLQKAPVKFVRFTNVSDEEQQVYLRQFVLTIEKK | soluble
